# Laboratory results: patent US20050229265
# Key:
# piggyBac transposase = assay: cell_activity; settings: germline remobilization rate in Drosophila with constitutive transposase; TTAA target; 10% with heat shock helper
# [1] = molecular target: T1, P element transposase (delta 2-3) (UniProt Q7M3K2); assay: cell_activity; settings: germline remobilization in Drosophila, delta 2-3 at 99B
# T1 sequence: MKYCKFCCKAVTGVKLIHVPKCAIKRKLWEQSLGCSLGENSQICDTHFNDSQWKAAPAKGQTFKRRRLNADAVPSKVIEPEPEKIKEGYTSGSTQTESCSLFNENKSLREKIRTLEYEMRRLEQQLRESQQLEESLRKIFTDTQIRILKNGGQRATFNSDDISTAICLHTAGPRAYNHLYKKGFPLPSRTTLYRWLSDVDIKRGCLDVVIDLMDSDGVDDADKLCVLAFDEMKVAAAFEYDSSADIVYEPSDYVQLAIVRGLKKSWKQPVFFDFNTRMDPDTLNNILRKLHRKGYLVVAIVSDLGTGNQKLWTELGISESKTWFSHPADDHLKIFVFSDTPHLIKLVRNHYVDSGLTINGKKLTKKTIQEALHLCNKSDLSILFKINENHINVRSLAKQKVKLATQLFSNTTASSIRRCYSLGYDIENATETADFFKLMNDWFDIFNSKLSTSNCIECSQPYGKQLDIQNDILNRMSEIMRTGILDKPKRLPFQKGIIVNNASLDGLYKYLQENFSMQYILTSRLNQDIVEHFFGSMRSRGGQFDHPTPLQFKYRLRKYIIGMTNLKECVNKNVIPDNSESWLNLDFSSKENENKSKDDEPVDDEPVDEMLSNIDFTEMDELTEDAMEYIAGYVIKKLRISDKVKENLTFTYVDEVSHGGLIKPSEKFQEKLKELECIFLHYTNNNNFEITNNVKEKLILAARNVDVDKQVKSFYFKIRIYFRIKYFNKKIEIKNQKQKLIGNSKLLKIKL
Substance,activity (piggyBac transposase) [%],activity [1] [%]
piggyBac transposon pB[w+],60,
XP (P element) transposon,,50
